Reference: patent US20210301011A1, “COMPOSITION FOR PROPHYLAXIS OR TREATMENT OF IL-8 RELATED DISEASES” (CHUGAI SEIYAKU KABUSHIKI KAISHA, priority 2016, published 2021)

Tests used:
[1] = commercially available antibodies, known values; cited from earlier work
[2] = system: pulmonary function (FEV1); details: clinical trials for COPD patients; worsened in the placebo group; cited from earlier work
neutrophil migration = details: clinical trials against cystic fibrosis; cited from earlier work
cynomolgus monkey FcγRIa = assay: Binding to soluble FcγR (BIACORE T200); details: 20° C., HBS-EP+
Method: (§1) Soluble FcγRIa and FcγRIIIa in both human and cynomolgus monkey were produced in the form of His-tagged molecules by methods known to those of ordinary skill in the art. […] Next, soluble FcγRIa or FcγRIIIa was injected with a running buffer (used as a reference solution), and was made to interact with the antibodies captured onto the sensor chip. HBS-EP+(GE Healthcare) was used as the running buffer, and HBS-EP+ was also used to dilute the soluble FcγRIa or FcγRIIIa. […] All measurements were carried out at 20° C.

human FcγRIIIa = molecular target: T1, human FcγRIIIa (Homo sapiens, UniProt P08637); assay: Binding to soluble FcγR (BIACORE T200); details: 20° C., HBS-EP+
T1 construct: the soluble forms of FcγRIa and FcγRIIIa in human and cynomolgus monkey; His tag; made in house
T1 sequence (P08637 17-208 limits assumed): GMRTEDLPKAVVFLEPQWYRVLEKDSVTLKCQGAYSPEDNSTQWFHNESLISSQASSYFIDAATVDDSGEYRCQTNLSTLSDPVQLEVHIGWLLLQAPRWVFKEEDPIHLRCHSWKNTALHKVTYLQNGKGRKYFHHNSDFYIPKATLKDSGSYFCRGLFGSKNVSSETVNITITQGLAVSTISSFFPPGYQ
Method: as §1

[3] = molecular target: T2, cynomolgus monkey FcγRIIIa (Macaca fascicularis, UniProt Q8SPW2); assay: Binding to soluble FcγR (BIACORE T200); details: 20° C., HBS-EP+
T2 construct: the soluble forms of FcγRIa and FcγRIIIa in human and cynomolgus monkey; His tag; made in house
T2 sequence (Q8SPW2 17-208 limits assumed): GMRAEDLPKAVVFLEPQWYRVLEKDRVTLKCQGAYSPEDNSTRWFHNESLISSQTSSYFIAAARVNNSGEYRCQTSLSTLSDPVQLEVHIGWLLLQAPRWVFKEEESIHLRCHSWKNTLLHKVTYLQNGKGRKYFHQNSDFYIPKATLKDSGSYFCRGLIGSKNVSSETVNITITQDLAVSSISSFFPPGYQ
Method: as §1

human FcγRIa = molecular target: T3, human FcγRIa (Homo sapiens, UniProt P12314); assay: Binding to soluble FcγR (BIACORE T200); details: 20° C., HBS-EP+
T3 construct: the soluble forms of FcγRIa and FcγRIIIa in human and cynomolgus monkey; His tag; made in house
T3 sequence (P12314 16-292 limits assumed): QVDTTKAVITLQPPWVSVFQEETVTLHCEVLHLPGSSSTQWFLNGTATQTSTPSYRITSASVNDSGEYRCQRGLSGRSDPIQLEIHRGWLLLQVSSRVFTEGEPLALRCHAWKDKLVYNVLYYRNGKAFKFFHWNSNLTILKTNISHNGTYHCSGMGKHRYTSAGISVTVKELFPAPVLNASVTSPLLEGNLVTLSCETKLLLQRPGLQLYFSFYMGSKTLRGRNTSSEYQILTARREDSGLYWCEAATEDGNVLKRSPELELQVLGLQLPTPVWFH
Method: as §1

## Campath: commercially available antibody
[1]
  frequency of ADA development in humans: 45%

## CC[C@@H](Nc1c(Nc2cccc(C(=O)N(C)C)c2O)c(=O)c1=O)c1ccc(C)o1 [MK7123]
[2]
  pulmonary function (FEV1): pulmonary function (FEV1) was improved in the active drug group

## O=C(Nc1ccc(Cl)c(S(=O)(=O)N2CCNCC2)c1O)Nc1cccc(F)c1Cl [Elubrixin]
Neutrophil migration
  topical neutrophil migration: Topical neutrophil migration was observed to be suppressed

## Zenapax: commercially available antibody
[1]
  frequency of ADA development in humans: 14%

B1: H1009/L395-F1886m: variable region of H1009/L395 with Fc variant F1886m (antibody)
heavy: QVQLVESGGGLVQPGGSLRLSCAASGFTFSDYYLSWVRQAPGKGLEWVGLIRNKDNYHTPEYSASVKGRFTISRDDSKNSLYLTMSDLKTEDTAVYYCARENHRYDVELAYWGQGTLVTVSSASTKGPSVFPLAPSSKSTSGGTAALGCLVKDYFPEPVTVSWNSGALTSGVHTFPAVLQSSGLYSLSSVVTVPSSSLGTQTYICNVNHKPSNTKVDKKVEPKSCDKTHTCPPCPAPELLGGPSVFLFPPKPKDTLMISRTPEVTCVVVDVSHEDPEVKFNWYVDGVEVHNAKTKPREEQYNSTYRVVSVLTVLHQDWLNGKEYKCKVSNKALPAPIEKTISKAKGQPREPQVYTLPPSREEMTKNQVSLTCLVKGFYPSDIAVEWESNGQPENNYKTTPPVLDSDGSFFLYSKLTVDKSRWQQGNVFSCSVLHEALHAHTTRKELSLSP
light: DIQMTQSPSSLSASVGDRVTITCRASEIIYSYLAWYQQKPGKAPKLLIYKAKTHADGVPSRFSGSGSGTDFTFTISSLQPEDIATYYCKHHFGFPRTFGQGTKVEIKRTVAAPSVFIFPPSDEQLKSGTASVVCLLNNFYPREAKVQWKVDNALQSGNSQESVTEQDSKDSTYSLSSTLTLSKADYEKHKVYACEVTHQGLSSPVTKSFNRGEC
Cynomolgus monkey FcγRIa
  binding to soluble cynomolgus monkey FcγRIa: bind to all FcγRs
Human FcγRIIIa
  binding to soluble human FcγRIIIa: bind to all FcγRs
[3]
  binding to soluble cynomolgus monkey FcγRIIIa: bind to all FcγRs
Human FcγRIa
  binding to soluble human FcγRIa: bind to all FcγRs
